This is an account of results in the RNAGym collection of RNA variant scans (doi:10.7554/elife.90254).

The chains are these.
B1: LINE1-mini (parent)
chain: GGCAGAGCUCAACACAGCGUGGCAAAGUGGCUGUGGCUAGACUGCC

The data set covers variants of B1. The data set can be described thus: self-cleavage, relative activity (ratio to wild type); higher = more cleavage; in vitro, sequencing; the parent is a self-cleaving ribozyme.
Turning to GGCAGACCUCAACACAGCGUGGCAAAGUGGCUGUAGCUAGACUGCC [G7C G35A], the self-cleavage amounted to 0.08. Turning to GGCAGACCUCAACACAGCGUGGCAAAGUGGCUGUUGCUAGACUGCC [G7C G35U], the self-cleavage came to 0.18. Turning to GGCAGACCUCAACACAGCGUGGCAAAGUGGCUGUCGCUAGACUGCC [G7C G35C], the self-cleavage amounted to 0.06.

Consider GGCAGAUCUCAACACAGCGUGGCAAAGUGGCUGUGGCUAGACUGUC [G7U C45U], for which the self-cleavage amounted to 0.12. In the case of GGCAGAUCUCAACACAGCGUGGCAAAGUGGCUGUGGCUAGACUGGC [G7U C45G], the self-cleavage worked out at 0.29.

Take GGCAGAUCUCAACACAGCGUGGCAAAGUGGCUGUGGCUAGACUGAC [G7U C45A]: the self-cleavage turned out to be 0.16. As for GGCAGAUCUCAACACAGAGUGGCAAAGUGGCUGUGGCUAGACUGCC [G7U C18A], the figure is 0.08; as for GGCAGAUCUCAACACAGGGUGGCAAAGUGGCUGUGGCUAGACUGCC [G7U C18G], 0.14; as for GGCAGAUCUCAACACAGUGUGGCAAAGUGGCUGUGGCUAGACUGCC [G7U C18U], 0.14. Consider GGCAGAUCUCAACACAGCGUGGCAAGGUGGCUGUGGCUAGACUGCC [G7U A26G], for which the self-cleavage amounted to 0.05. For GGCAGAUCUCAACACAGCGUGGCAACGUGGCUGUGGCUAGACUGCC [G7U A26C], the self-cleavage was determined as 0.24. Turning to GGCAGAUCUCAACACAGCGUGGCAAUGUGGCUGUGGCUAGACUGCC [G7U A26U], the self-cleavage is 0.34. Take GGCAGAUCUCAACACAACGUGGCAAAGUGGCUGUGGCUAGACUGCC [G7U G17A]: the self-cleavage is 0.08. For GGCAGAUCUCAACACACCGUGGCAAAGUGGCUGUGGCUAGACUGCC [G7U G17C], the self-cleavage turned out to be 0.07. As for GGCAGAUCUCAACACAUCGUGGCAAAGUGGCUGUGGCUAGACUGCC [G7U G17U], the figure is 0.12; as for GGCAGAUCUCAACACAGCGUGGCAAAGUGGCUGUGGCUCGACUGCC [G7U A39C], 0.19. On to GGCAGAUCUCAACACAGCGUGGCAAAGUGGCUGUGGCUGGACUGCC [G7U A39G], for which the self-cleavage came out at 0.06. In the case of GGCAGAUCUCAACACAGCGUGGCAAAGUGGCUGUGGCUUGACUGCC [G7U A39U], the self-cleavage is 0.1. Consider GGCAGAUCUCAACACAGCGUGGCAAAGUGGGUGUGGCUAGACUGCC [G7U C31G], for which the self-cleavage came out at 0.06. In the case of GGCAGAUCUCAACACAGCGUGGCAAAGUGGUUGUGGCUAGACUGCC [G7U C31U] it was 0.1. On to GGCAGAUCUCAACACAGCGUGGCAAAGUGGAUGUGGCUAGACUGCC [G7U C31A], for which the self-cleavage was found to be 0.09.

Turning to GGCAGAUCUCAACACAGCGUUGCAAAGUGGCUGUGGCUAGACUGCC [G7U G21U], the self-cleavage came to 0.1. As for GGCAGAUCUCAACACAGCGUAGCAAAGUGGCUGUGGCUAGACUGCC [G7U G21A], the self-cleavage turned out to be 0.14. For GGCAGAUCUCAACACAGCGUCGCAAAGUGGCUGUGGCUAGACUGCC [G7U G21C], the self-cleavage came out at 0.08. Turning to GGCAGAUCUCAACACAGCGUGGCAAAGUGGCUGUGGCUAGACUGCA [G7U C46A], the self-cleavage amounted to 0.19. For GGCAGAUCUCAACACAGCGUGGCAAAGUGGCUGUGGCUAGACUGCU [G7U C46U], the self-cleavage is 0.03. As to GGCAGAUCUCAACACAGCGUGGCAAAGUGGCUGUGGCUAGACUGCG [G7U C46G], the self-cleavage was determined as 0.09. As for GGCAGACCUCAACACAGCGUGGCAAAGGGGCUGUGGCUAGACUGCC [G7C U28G], the figure is 0.08; as for GGCAGACCUCAACACAGCGUGGCAAAGCGGCUGUGGCUAGACUGCC [G7C U28C], 0.1. Turning to GGCAGACCUCAACACAGCGUGGCAAAGAGGCUGUGGCUAGACUGCC [G7C U28A], the self-cleavage worked out at 0.18. Turning to GGCAGAUCUCAACAAAGCGUGGCAAAGUGGCUGUGGCUAGACUGCC [G7U C15A], the self-cleavage was 0.16. On to GGCAGAUCUCAACAUAGCGUGGCAAAGUGGCUGUGGCUAGACUGCC [G7U C15U], for which the self-cleavage stood at 0.1. Regarding GGCAGAUCUCAACAGAGCGUGGCAAAGUGGCUGUGGCUAGACUGCC [G7U C15G], the self-cleavage is 0.09. In the case of GGCAGAUCUCAACACAGCGUGCCAAAGUGGCUGUGGCUAGACUGCC [G7U G22C] it was 0.04. Turning to GGCAGAUCUCAACACAGCGUGUCAAAGUGGCUGUGGCUAGACUGCC [G7U G22U], the self-cleavage was found to be 0.14. GGCAGAUCUCAACACAGCGUGACAAAGUGGCUGUGGCUAGACUGCC [G7U G22A]: the self-cleavage came out at 0.08.

As for GGCAGACCUCAACACAGCGGGGCAAAGUGGCUGUGGCUAGACUGCC [G7C U20G], the self-cleavage was determined as 0.12. For the variant GGCAGACCUCAACACAGCGCGGCAAAGUGGCUGUGGCUAGACUGCC [G7C U20C], the self-cleavage amounted to 0.15.

Regarding GGCAGACCUCAACACAGCGAGGCAAAGUGGCUGUGGCUAGACUGCC [G7C U20A], the self-cleavage is 0.06. Consider GGCAGACCUCAACACAGCGUGGCAAAGUGGCUCUGGCUAGACUGCC [G7C G33C], for which the self-cleavage turned out to be 0.08. As for GGCAGACCUCAACACAGCGUGGCAAAGUGGCUAUGGCUAGACUGCC [G7C G33A], the self-cleavage worked out at 0.06.

As for GGCAGACCUCAACACAGCGUGGCAAAGUGGCUUUGGCUAGACUGCC [G7C G33U], the self-cleavage came to 0.07.

As for GGCAGACCUCAACACAGCGUGGCAAAGUGGCUGUGGCUAGACGGCC [G7C U43G], the self-cleavage worked out at 0.05.

As to GGCAGACCUCAACACAGCGUGGCAAAGUGGCUGUGGCUAGACAGCC [G7C U43A], the self-cleavage was 0.15.

Take GGCAGACCUCAACACAGCGUGGCAAAGUGGCUGUGGCUAGACCGCC [G7C U43C]: the self-cleavage came to 0.33. Regarding GGCAGACCUCAACACAGCGUGGCAAAGUGGCUGUGGCGAGACUGCC [G7C U38G], the self-cleavage was determined as 0.02. In the case of GGCAGACCUCAACACAGCGUGGCAAAGUGGCUGUGGCAAGACUGCC [G7C U38A], the self-cleavage was 0.07. In the case of GGCAGACCUCAACACAGCGUGGCAAAGUGGCUGUGGCCAGACUGCC [G7C U38C], the self-cleavage worked out at 0.1. Take GGCAGAUCUCAACACAGCGUGGCCAAGUGGCUGUGGCUAGACUGCC [G7U A24C]: the self-cleavage worked out at 0.06.

In the case of GGCAGAUCUCAACACAGCGUGGCGAAGUGGCUGUGGCUAGACUGCC [G7U A24G], the self-cleavage is 0.06. GGCAGAUCUCAACACAGCGUGGCUAAGUGGCUGUGGCUAGACUGCC [G7U A24U]: the self-cleavage amounted to 0.07.

For GGCAGAUCUCAACACAGCGUGGUAAAGUGGCUGUGGCUAGACUGCC [G7U C23U], the self-cleavage turned out to be 0.06. As for GGCAGAUCUCAACACAGCGUGGGAAAGUGGCUGUGGCUAGACUGCC [G7U C23G], the self-cleavage came out at 0.08. For the variant GGCAGAUCUCAACACAGCGUGGAAAAGUGGCUGUGGCUAGACUGCC [G7U C23A], the self-cleavage was found to be 0.06. As to GGCAGACCACAACACAGCGUGGCAAAGUGGCUGUGGCUAGACUGCC [G7C U9A], the self-cleavage is 0.09. In the case of GGCAGACCGCAACACAGCGUGGCAAAGUGGCUGUGGCUAGACUGCC [G7C U9G], the self-cleavage was found to be 0.28.
